IntAct's records for PubMed 17717528

B1: Circadian clock oscillator protein KaiC (Thermosynechococcus elongatus (strain BP-1)), Q79V60 (parent)
chain: MTNLPEHQSSPTEQSSAEVKKIPTMIEGFDDISHGGLPQGRTTLVSGTSGTGKTLFAVQFLYNGITIFNEPGIFVTFEESPQDIIKNALSFGWNLQSLIDQGKLFILDASPDPDGQEVAGDFDLSALIERIQYAIRKYKATRVSIDSVTAVFQQYDAASVVRREIFRLAFRLKQLGVTTIMTTERVDEYGPVARFGVEEFVSDNVVILRNVLEGERRRRTVEILKLRGTTHMKGEYPFTINNGINIFPLGAMRLTQRSSNVRVSSGVKTLDEMCGGGFFKDSIILATGATGTGKTLLVSKFLETGCQQGERALLFAYEESRAQLSRNASSWGIDFEELERRGLLRIICAYPESAGLEDHLQIIKSEIADFKPSRVAIDSLSALARGVSNNAFRQFVIGVTGFAKQEEITGFFTNTTDQFMGSNSITESHISTITDTILLLQYVEIRGEMSRAINVFKMRGSWHDKGIREYVITEKGAEIRDSFRNFEGIISGTPTRISVDEKTELARIAKGMQDLESE
partner: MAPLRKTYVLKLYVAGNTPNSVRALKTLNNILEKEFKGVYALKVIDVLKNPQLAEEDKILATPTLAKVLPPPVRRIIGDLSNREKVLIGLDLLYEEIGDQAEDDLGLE
B2: Circadian clock oscillator protein KaiC (Thermosynechococcus elongatus (strain BP-1)), Q79V60 (parent)
chain: B1 chain
partner: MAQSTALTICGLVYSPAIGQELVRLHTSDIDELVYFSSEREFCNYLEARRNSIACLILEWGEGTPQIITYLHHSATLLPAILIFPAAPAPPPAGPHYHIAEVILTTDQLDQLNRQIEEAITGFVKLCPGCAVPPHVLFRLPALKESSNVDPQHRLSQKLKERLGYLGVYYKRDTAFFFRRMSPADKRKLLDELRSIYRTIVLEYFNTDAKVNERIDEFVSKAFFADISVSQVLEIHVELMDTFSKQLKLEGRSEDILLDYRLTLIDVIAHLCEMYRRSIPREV

Variants of: B1
Details: with kaib_thevb kaiB

Variant | effect of a mutation on the interaction
MTNLPEHQSSPTEQSSAEVKKIPTMIEGFDDISHGGLPQGRTTLVSGTSGTGKTLFAVQFLYNGITIFNEPGIFVTFEESPQDIIKNALSFGWNLQSLIDQGKLFILDASPDPDGQEVAGDFDLSALIERIQYAIRKYKATRVSIDSVTAVFQQYDAASVVRREIFRLAFRLKQLGVTTIMTTERVDEYGPVARFGVEEFVSDNVVILRNVLEGERRRRTVEILKLRGTTHMKGEYPFTINNGINIFPLGAMRLTQRSSNVRVSSGVKTLDEMCGGGFFKDSIILATGATGTGKTLLVSKFLETGCQQGERALLFAYEESRAQLSRNASSWGIDFEELERRGLLRIICAYPESAGLEDHLQIIKSEIADFKPSRVAIDSLSALARGVSNNAFRQFVIGVTGFAKQEEITGFFTNTTDQFMGSNSITESHISAITDTILLLQYVEIRGEMSRAINVFKMRGSWHDKGIREYVITEKGAEIRDSFRNFEGIISGTPTRISVDEKTELARIAKGMQDLESE [T432A] | disrupting interaction

Variants of: B2
Details: with kaia_thevb kaiA

Variant | effect of a mutation on the interaction
MTNLPEHQSSPTEQSSAEVKKIPTMIEGFDDISHGGLPQGRTTLVSGTSGTGKTLFAVQFLYNGITIFNEPGIFVTFEESPQDIIKNALSFGWNLQSLIDQGKLFILDASPDPDGQEVAGDFDLSALIERIQYAIRKYKATRVSIDSVTAVFQQYDAASVVRREIFRLAFRLKQLGVTTIMTTERVDEYGPVARFGVEEFVSDNVVILRNVLEGERRRRTVEILKLRGTTHMKGEYPFTINNGINIFPLGAMRLTQRSSNVRVSSGVKTLDEMCGGGFFKDSIILATGATGTGKTLLVSKFLETGCQQGERALLFAYEESRAQLSRNASSWGIDFEELERRGLLRIICAYPESAGLEDHLQIIKSEIADFKPSRVAIDSLSALARGVSNNAFRQFVIGVTGFAKQEEITGFFTNTTDQFMGSNSITESHISAITDTILLLQYVEIRGEMSRAINVFKMRGSWHDKGIREYVITEKGAEIRDSFRNFEGIISGTPTRISVDEKTELARIAKGMQDLESE [T432A] | decreasing interaction
